In patent US20110166062A1 (INDIANA UNIVERSITY RESEARCH AND TECHNOLOGY, published 2011):
Where no end group is shown, it is not given here. [ ]: non-standard residue; d: D form. The star is where a group is joined. PEG 40 kDa = PEG (40 kDa) covalently attached to Cys; Stearoyl = CCCCCCCCCCCCCCCCCC(=O)*; Palmitoyl = CCCCCCCCCCCCCCCC(=O)*; Myristoyl = CCCCCCCCCCCCCC(=O)*; Octanoyl = CCCCCCCC(=O)*; Aib = CC(C)(N)C(=O)O

B1: mt-257 (peptide)
peptide: Y[Aib]QGTFTSDYSIYLDKQAA[Aib]EFVCWLLAG-NH2
modifications: N-terminus assumed
SMILES: CC[C@H](C)[C@H](NC(=O)[C@H](CO)NC(=O)[C@H](Cc1ccc(O)cc1)NC(=O)[C@H](CC(=O)O)NC(=O)[C@H](CO)NC(=O)[C@@H](NC(=O)[C@H](Cc1ccccc1)NC(=O)[C@@H](NC(=O)CNC(=O)[C@H](CCC(N)=O)NC(=O)C(C)(C)NC(=O)[C@@H](N)Cc1ccc(O)cc1)[C@@H](C)O)[C@@H](C)O)C(=O)N[C@@H](Cc1ccc(O)cc1)C(=O)N[C@@H](CC(C)C)C(=O)N[C@@H](CC(=O)O)C(=O)N[C@@H](CCCCN)C(=O)N[C@@H](CCC(N)=O)C(=O)N[C@@H](C)C(=O)N[C@@H](C)C(=O)NC(C)(C)C(=O)N[C@@H](CCC(=O)O)C(=O)N[C@@H](Cc1ccccc1)C(=O)N[C@H](C(=O)N[C@@H](CS)C(=O)N[C@@H](Cc1c[nH]c2ccccc12)C(=O)N[C@@H](CC(C)C)C(=O)N[C@@H](CC(C)C)C(=O)N[C@@H](C)C(=O)NCC(N)=O)C(C)C
B2: mt-279 (peptide)
peptide: Y[Aib]QGTFTSDYSIYLDKQAA[Aib]EFVNWLLAGGPSSGAPPPSK(Stearoyl)-NH2
modifications: N-terminus assumed
SMILES: CCCCCCCCCCCCCCCCCC(=O)NCCCC[C@H](NC(=O)[C@H](CO)NC(=O)[C@@H]1CCCN1C(=O)[C@@H]1CCCN1C(=O)[C@@H]1CCCN1C(=O)[C@H](C)NC(=O)CNC(=O)[C@H](CO)NC(=O)[C@H](CO)NC(=O)[C@@H]1CCCN1C(=O)CNC(=O)CNC(=O)[C@H](C)NC(=O)[C@H](CC(C)C)NC(=O)[C@H](CC(C)C)NC(=O)[C@H](Cc1c[nH]c2ccccc12)NC(=O)[C@H](CC(N)=O)NC(=O)[C@@H](NC(=O)[C@H](Cc1ccccc1)NC(=O)[C@H](CCC(=O)O)NC(=O)C(C)(C)NC(=O)[C@H](C)NC(=O)[C@H](C)NC(=O)[C@H](CCC(N)=O)NC(=O)[C@H](CCCCN)NC(=O)[C@H](CC(=O)O)NC(=O)[C@H](CC(C)C)NC(=O)[C@H](Cc1ccc(O)cc1)NC(=O)[C@@H](NC(=O)[C@H](CO)NC(=O)[C@H](Cc1ccc(O)cc1)NC(=O)[C@H](CC(=O)O)NC(=O)[C@H](CO)NC(=O)[C@@H](NC(=O)[C@H](Cc1ccccc1)NC(=O)[C@@H](NC(=O)CNC(=O)[C@H](CCC(N)=O)NC(=O)C(C)(C)NC(=O)[C@@H](N)Cc1ccc(O)cc1)[C@@H](C)O)[C@@H](C)O)[C@@H](C)CC)C(C)C)C(N)=O
B3: mt-278 (peptide)
peptide: Y[Aib]QGTFTSDYSIYLDKQAA[Aib]EFVNWLLAGGPSSGAPPPSK(Palmitoyl)-NH2
modifications: N-terminus assumed
SMILES: CCCCCCCCCCCCCCCC(=O)NCCCC[C@H](NC(=O)[C@H](CO)NC(=O)[C@@H]1CCCN1C(=O)[C@@H]1CCCN1C(=O)[C@@H]1CCCN1C(=O)[C@H](C)NC(=O)CNC(=O)[C@H](CO)NC(=O)[C@H](CO)NC(=O)[C@@H]1CCCN1C(=O)CNC(=O)CNC(=O)[C@H](C)NC(=O)[C@H](CC(C)C)NC(=O)[C@H](CC(C)C)NC(=O)[C@H](Cc1c[nH]c2ccccc12)NC(=O)[C@H](CC(N)=O)NC(=O)[C@@H](NC(=O)[C@H](Cc1ccccc1)NC(=O)[C@H](CCC(=O)O)NC(=O)C(C)(C)NC(=O)[C@H](C)NC(=O)[C@H](C)NC(=O)[C@H](CCC(N)=O)NC(=O)[C@H](CCCCN)NC(=O)[C@H](CC(=O)O)NC(=O)[C@H](CC(C)C)NC(=O)[C@H](Cc1ccc(O)cc1)NC(=O)[C@@H](NC(=O)[C@H](CO)NC(=O)[C@H](Cc1ccc(O)cc1)NC(=O)[C@H](CC(=O)O)NC(=O)[C@H](CO)NC(=O)[C@@H](NC(=O)[C@H](Cc1ccccc1)NC(=O)[C@@H](NC(=O)CNC(=O)[C@H](CCC(N)=O)NC(=O)C(C)(C)NC(=O)[C@@H](N)Cc1ccc(O)cc1)[C@@H](C)O)[C@@H](C)O)[C@@H](C)CC)C(C)C)C(N)=O
B4: mt-277 (peptide)
peptide: Y[Aib]QGTFTSDYSIYLDKQAA[Aib]EFVNWLLAGGPSSGAPPPSK(Myristoyl)-NH2
modifications: N-terminus assumed
SMILES: CCCCCCCCCCCCCC(=O)NCCCC[C@H](NC(=O)[C@H](CO)NC(=O)[C@@H]1CCCN1C(=O)[C@@H]1CCCN1C(=O)[C@@H]1CCCN1C(=O)[C@H](C)NC(=O)CNC(=O)[C@H](CO)NC(=O)[C@H](CO)NC(=O)[C@@H]1CCCN1C(=O)CNC(=O)CNC(=O)[C@H](C)NC(=O)[C@H](CC(C)C)NC(=O)[C@H](CC(C)C)NC(=O)[C@H](Cc1c[nH]c2ccccc12)NC(=O)[C@H](CC(N)=O)NC(=O)[C@@H](NC(=O)[C@H](Cc1ccccc1)NC(=O)[C@H](CCC(=O)O)NC(=O)C(C)(C)NC(=O)[C@H](C)NC(=O)[C@H](C)NC(=O)[C@H](CCC(N)=O)NC(=O)[C@H](CCCCN)NC(=O)[C@H](CC(=O)O)NC(=O)[C@H](CC(C)C)NC(=O)[C@H](Cc1ccc(O)cc1)NC(=O)[C@@H](NC(=O)[C@H](CO)NC(=O)[C@H](Cc1ccc(O)cc1)NC(=O)[C@H](CC(=O)O)NC(=O)[C@H](CO)NC(=O)[C@@H](NC(=O)[C@H](Cc1ccccc1)NC(=O)[C@@H](NC(=O)CNC(=O)[C@H](CCC(N)=O)NC(=O)C(C)(C)NC(=O)[C@@H](N)Cc1ccc(O)cc1)[C@@H](C)O)[C@@H](C)O)[C@@H](C)CC)C(C)C)C(N)=O
B5: mt-296 (peptide)
peptide: Y[Aib]EGTFTSDYSIYLDKQAA[Aib]EFVCWLLAGGPSSGAPPPSK(Palmitoyl)-NH2
modifications: N-terminus assumed
SMILES: CCCCCCCCCCCCCCCC(=O)NCCCC[C@H](NC(=O)[C@H](CO)NC(=O)[C@@H]1CCCN1C(=O)[C@@H]1CCCN1C(=O)[C@@H]1CCCN1C(=O)[C@H](C)NC(=O)CNC(=O)[C@H](CO)NC(=O)[C@H](CO)NC(=O)[C@@H]1CCCN1C(=O)CNC(=O)CNC(=O)[C@H](C)NC(=O)[C@H](CC(C)C)NC(=O)[C@H](CC(C)C)NC(=O)[C@H](Cc1c[nH]c2ccccc12)NC(=O)[C@H](CS)NC(=O)[C@@H](NC(=O)[C@H](Cc1ccccc1)NC(=O)[C@H](CCC(=O)O)NC(=O)C(C)(C)NC(=O)[C@H](C)NC(=O)[C@H](C)NC(=O)[C@H](CCC(N)=O)NC(=O)[C@H](CCCCN)NC(=O)[C@H](CC(=O)O)NC(=O)[C@H](CC(C)C)NC(=O)[C@H](Cc1ccc(O)cc1)NC(=O)[C@@H](NC(=O)[C@H](CO)NC(=O)[C@H](Cc1ccc(O)cc1)NC(=O)[C@H](CC(=O)O)NC(=O)[C@H](CO)NC(=O)[C@@H](NC(=O)[C@H](Cc1ccccc1)NC(=O)[C@@H](NC(=O)CNC(=O)[C@H](CCC(=O)O)NC(=O)C(C)(C)NC(=O)[C@@H](N)Cc1ccc(O)cc1)[C@@H](C)O)[C@@H](C)O)[C@@H](C)CC)C(C)C)C(N)=O
B6: mt-323 (peptide)
peptide: Y[Aib]QGTFTSDYSIYLDKQAA[Aib]EFVNWLLAGGPSSGAPPPSK(Octanoyl)-NH2
modifications: N-terminus assumed
SMILES: CCCCCCCC(=O)NCCCC[C@H](NC(=O)[C@H](CO)NC(=O)[C@@H]1CCCN1C(=O)[C@@H]1CCCN1C(=O)[C@@H]1CCCN1C(=O)[C@H](C)NC(=O)CNC(=O)[C@H](CO)NC(=O)[C@H](CO)NC(=O)[C@@H]1CCCN1C(=O)CNC(=O)CNC(=O)[C@H](C)NC(=O)[C@H](CC(C)C)NC(=O)[C@H](CC(C)C)NC(=O)[C@H](Cc1c[nH]c2ccccc12)NC(=O)[C@H](CC(N)=O)NC(=O)[C@@H](NC(=O)[C@H](Cc1ccccc1)NC(=O)[C@H](CCC(=O)O)NC(=O)C(C)(C)NC(=O)[C@H](C)NC(=O)[C@H](C)NC(=O)[C@H](CCC(N)=O)NC(=O)[C@H](CCCCN)NC(=O)[C@H](CC(=O)O)NC(=O)[C@H](CC(C)C)NC(=O)[C@H](Cc1ccc(O)cc1)NC(=O)[C@@H](NC(=O)[C@H](CO)NC(=O)[C@H](Cc1ccc(O)cc1)NC(=O)[C@H](CC(=O)O)NC(=O)[C@H](CO)NC(=O)[C@@H](NC(=O)[C@H](Cc1ccccc1)NC(=O)[C@@H](NC(=O)CNC(=O)[C@H](CCC(N)=O)NC(=O)C(C)(C)NC(=O)[C@@H](N)Cc1ccc(O)cc1)[C@@H](C)O)[C@@H](C)O)[C@@H](C)CC)C(C)C)C(N)=O

Biological target: glucagon receptor (UniProt P47871 26-477, limits assumed)
Sequence (P47871 26-477 limits assumed): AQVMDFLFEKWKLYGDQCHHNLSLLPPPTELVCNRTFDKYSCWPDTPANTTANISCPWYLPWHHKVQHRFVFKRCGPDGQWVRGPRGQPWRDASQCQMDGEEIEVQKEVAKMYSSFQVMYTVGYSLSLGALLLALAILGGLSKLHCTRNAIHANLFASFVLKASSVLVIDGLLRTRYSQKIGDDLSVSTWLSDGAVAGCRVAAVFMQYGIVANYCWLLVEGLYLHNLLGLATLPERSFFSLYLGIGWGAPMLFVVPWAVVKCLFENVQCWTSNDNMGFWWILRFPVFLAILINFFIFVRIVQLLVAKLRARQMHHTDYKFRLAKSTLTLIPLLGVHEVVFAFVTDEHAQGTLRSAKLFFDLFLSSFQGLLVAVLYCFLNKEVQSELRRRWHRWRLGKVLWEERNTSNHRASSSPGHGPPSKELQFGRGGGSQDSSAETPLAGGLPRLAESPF
Assay: cell-based or functional assay

| Binder | EC50 [pM] |
| --- | --- |
| Y[Aib]QGTFTSDYSIYLDKQAA[Aib]EFVC(PEG 40 kDa)WLLAG-NH2 [mt-281] | 282 |
| B1 | 211 |
| Y[Aib]EGTFTSDK(Myristoyl)SIYLDKQAA[Aib]EFVCWLLAGGPSSGAPPPS-NH2 (also: C-terminal amidation listed at position 40 of 39-residue chain) [mt-337] | 106000 |
| Y[Aib]EGTFTSDYSIYLDKQAA[Aib]EFVNWLLAGGPSSGAPPPSC-NH2 [mt-256] | 58900 |
| Y[Aib]EGTFTSDYSIYLDKQAA[Aib]EFVNWLLAGGPSSGAPPPSK-NH2 [mt-263] | 3180 |
| Y[Aib]EGTFTSDKSIYLDKQAA[Aib]EFVCWLLAGGPSSGAPPPS-NH2 (also: C-terminal amidation listed at position 40 of 39-residue chain) [mt-338] | 295000 |
| Y[Aib]EGTFTSDYSIYLDKQAA[Aib]EFVNWLLAGGPSSGAPPPSC(PEG 40 kDa)-NH2 [mt-295] | 87300 |

Biological target: GLP-1 receptor (UniProt P43220 24-463, limits assumed)
Assay: cell-based or functional assay

| Binder | EC50 [pM] |
| --- | --- |
| B2 | 4.6 |
| B3 | 4.2 |
| B4 | 8.6 |
| B5 | 12.4 |

Biological target: T1, GIP receptor (UniProt P48546 22-466)
T1 sequence (looked up): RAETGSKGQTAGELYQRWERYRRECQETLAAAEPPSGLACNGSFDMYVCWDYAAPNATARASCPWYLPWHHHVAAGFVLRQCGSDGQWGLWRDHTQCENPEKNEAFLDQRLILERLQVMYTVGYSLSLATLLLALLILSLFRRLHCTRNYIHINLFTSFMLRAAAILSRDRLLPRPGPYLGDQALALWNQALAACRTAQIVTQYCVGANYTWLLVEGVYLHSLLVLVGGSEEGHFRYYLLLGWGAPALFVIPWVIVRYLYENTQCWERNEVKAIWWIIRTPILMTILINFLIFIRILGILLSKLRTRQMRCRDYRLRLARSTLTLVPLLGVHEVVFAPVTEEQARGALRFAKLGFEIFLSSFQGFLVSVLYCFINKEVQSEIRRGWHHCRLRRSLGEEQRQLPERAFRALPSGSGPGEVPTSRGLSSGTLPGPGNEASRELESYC
Assay: cell-based or functional assay

| Binder | EC50 [pM] |
| --- | --- |
| B2 | 4.5 |
| B6 | 8.4 |
| Y[Aib]EGTFTSDK(Myristoyl)SIYLDKQAA[Aib]EFVCWLLAGGPSSGAPPPS-NH2 (also: C-terminal amidation listed at position 40 of 39-residue chain) [mt-337] | 8 |
| Y[Aib]EGTFTSDYSIYLDKQAA[Aib]EFVNWLLAGGPSSGAPPPSK-NH2 [mt-263] | 3.1 |
| Y[Aib]EGTFTSDKSIYLDKQAA[Aib]EFVCWLLAGGPSSGAPPPS-NH2 (also: C-terminal amidation listed at position 40 of 39-residue chain) [mt-338] | 23.4 |
| B3 | 2.8 |
| B4 | 5.2 |
| B5 | 7.7 |
